Experimental data reported in the supplement of paper PMC10126150.
± gives the standard deviation of the averaged measurements.

System: ATP
Experiment: switch fluorescence ratio, 500 uM ATP over buffer (Cy3 cluster intensity, sum of 5 cycles each) (fold (ratio)); higher = stronger signal-on switching upon ATP binding; sequences stand for … in TCGTCGGCAGCGTCAGATGTGTATAAGAGACAGTTTTTTTTTTTTTTTTTTTTTTTTT…TC
Conditions: aptamer strand: ATP DNA aptamer (quencher-CACCTGGGGGAGTATTGCGGAGGAAGG + anchor), 100 nM annealed; ATP concentration: 500 uM
Summary of the method: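 Imaging in selection buffer was followed by imaging after 15 min with 500 uM ATP at 22 °C, for Cy3-labelled switching-strand clusters annealed to 100 nM quencher-labelled ATP aptamer on a modified Illumina MiSeq flow-cell. Five of these buffer/ATP cycles ran, separated by NaOH stripping and re-annealing. The fluorescence ratio per cluster is summed target-cycle over summed buffer-cycle Cy3 intensity, averaged per switch-domain sequence; clusters outside 100-1000 RFU were removed.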
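Also: ATP exposure 15 min at 22 °C before imaging.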

| Sequence | switch fluorescence ratio |
| --- | --- |
| TCTGGGGAGT | 1.01 ± 0.043 |
| TCTGGGGCGG | 1.04 ± 0.074 |
| TCTGGTGATA | 1.01 ± 0.017 |
| TCTGGTGTTC | 1.045 ± 0.005 |
| TCTGGTTGGG | 1.04 ± 0.064 |
| TCTGGTTGTG | 1.01 ± 0.016 |
| TCTGTAATTT | 1.41 ± 0.59 |
| TCTGTAGGGG | 0.995 ± 0.013 |
| TCTGTGAGGT | 1.034 ± 0.0072 |
| TCTGTGTTTT | 1.04 ± 0.038 |
| TCTGTTAGTG | 1.03 ± 0.045 |
| TCTGTTGTTC | 0.993 ± 0.018 |
| TCTTAATTG | 0.98356 ± 0.00079 |
| TCTTAGAAC | 1.009 ± 0.0062 |
| TCTTAGCATT | 1.04 ± 0.077 |
| TCTTAGGGTT | 1.02 ± 0.017 |
| TCTTAGTTCG | 1.008 ± 0.01 |
| TCTTATAGGG | 1 ± 0.042 |
| TCTTATGGCC | 0.975 ± 0.018 |
| TCTTATTCTG | 1.044 ± 0.0063 |
| TCTTCGGGAA | 1.09 ± 0.06 |
| TCTTCTACCT | 1.2 ± 0.022 |
| TCTTCTAGCT | 1.05 ± 0.019 |
| TCTTGAAGGT | 0.985 ± 0.0053 |
| TCTTGCGTCG | 0.976 ± 0.023 |
| TCTTGGATGT | 1.0101 ± 5.3e-05 |

| Sequence | switch fluorescence ratio |
| --- | --- |
| TCTTGGTA | 0.959 ± 0.031 |
| TCTTGGTCTC | 0.995 ± 0.027 |
| TCTTGTATGG | 0.9906 ± 0.006 |
| TCTTTAAAGG | 1.04 ± 0.039 |
| TCTTTCCGGT | 1.14 ± 0.23 |
| TCTTTCGGAG | 1.33 ± 0.077 |
| TCTTTGAAGA | 1.14 ± 0.24 |
| TCTTTGGACC | 1.04 ± 0.056 |
| TCTTTGGTGG | 1.03 ± 0.038 |
| TCTTTTCATT | 0.994 ± 0.022 |
| TCTTTTCCCT | 1.02 ± 0.086 |
| TCTTTTGCCT | 1.01 ± 0.034 |
| TCTTTTGCTT | 1.01 ± 0.032 |
| TCTTTTGGCA | 1.1 ± 0.078 |
| TCTTTTGGTT | 1.011 ± 0.0051 |
| TCTTTTTTTC | 1.02 ± 0.034 |
| TGAAAAAAAT | 1.05 ± 0.058 |
| TGAAAAACCG | 1.14 ± 0.12 |
| TGAAAAACGT | 0.991 ± 0.013 |
| TGAAAAAGGT | 0.9993 ± 0.0021 |
| TGAAAAGGTA | 1 ± 0.013 |
| TGAAAGAGGC | 0.999 ± 0.014 |
| TGAAAGGATT | 1.02 ± 0.025 |
| TGAAAGGTGG | 1.04 ± 0.018 |
| TGAAAGTGTT | 0.994 ± 0.012 |
| TGAAATGGGA | 1.0074 ± 0.00077 |

| Sequence | switch fluorescence ratio |
| --- | --- |
| TGAACGGGGA | 1.02 ± 0.031 |
| TGAACTAATT | 1.01 ± 0.0099 |
| TGAACTTAGT | 0.995 ± 0.02 |
| TGAACTTTTA | 0.965 ± 0.061 |
| TGAAGAAAGT | 0.998 ± 0.032 |
| TGAAGATTAT | 0.988 ± 0.012 |
| TGAAGGAGAA | 0.929 ± 0.037 |
| TGAAGGGGAT | 1.02 ± 0.045 |
| TGAAGTACTT | 1.06 ± 0.011 |
| TGAAGTCGGT | 0.9681 ± 0.0066 |
| TGAAGTTGGG | 1.11 ± 0.15 |
| TGAATAGTGT | 0.996 ± 0.044 |
| TGAATCGGGG | 1.027 ± 0.0014 |
| TGAATGAGGG | 0.993 ± 0.029 |
| TGAATGCGCC | 1.01 ± 0.025 |
| TGAATGCTTT | 1.23 ± 0.3 |
| TGAATGGAGG | 0.988 ± 0.042 |
| TGAATGGGGT | 0.987 ± 0.02 |
| TGAATGGTCG | 1.05 ± 0.036 |
| TGAATTCGGG | 1.01 ± 0.064 |
| TGAATTCTTG | 1 ± 0.034 |
| TGAATTGCAT | 0.96601 ± 0.00064 |
| TGAATTGGTC | 1.06 ± 0.16 |
| TGAATTGTTT | 0.993 ± 0.043 |
| TGAATTTCTG | 1.029 ± 0.0094 |
